Measured values as given in US20260297195 (published 2026).

Columns and labels:
human PDL1-His = human PDL1-His (human); test: SPR 25C
human PDL1-Fc [1] = biological target: human PDL1-Fc (human); test: BLI
human PDL1-Fc [2] = biological target: human PDL1-Fc (human); test: ELISA

Sequence of human PDL1-Fc (human) (chain, as listed by the source): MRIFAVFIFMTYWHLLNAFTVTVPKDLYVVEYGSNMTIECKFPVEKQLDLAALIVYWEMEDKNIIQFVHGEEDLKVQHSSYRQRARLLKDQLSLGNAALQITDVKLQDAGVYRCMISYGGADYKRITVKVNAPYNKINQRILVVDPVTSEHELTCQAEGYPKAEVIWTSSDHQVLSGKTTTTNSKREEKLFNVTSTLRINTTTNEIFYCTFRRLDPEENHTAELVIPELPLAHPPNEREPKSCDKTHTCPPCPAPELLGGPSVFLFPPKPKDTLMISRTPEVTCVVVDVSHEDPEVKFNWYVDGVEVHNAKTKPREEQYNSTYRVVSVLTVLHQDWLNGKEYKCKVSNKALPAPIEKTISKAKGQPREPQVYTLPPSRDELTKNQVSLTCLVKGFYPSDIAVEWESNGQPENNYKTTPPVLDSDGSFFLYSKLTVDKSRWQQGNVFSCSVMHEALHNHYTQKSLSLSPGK
Sequence of human PDL1-His (human) (chain, as listed by the source): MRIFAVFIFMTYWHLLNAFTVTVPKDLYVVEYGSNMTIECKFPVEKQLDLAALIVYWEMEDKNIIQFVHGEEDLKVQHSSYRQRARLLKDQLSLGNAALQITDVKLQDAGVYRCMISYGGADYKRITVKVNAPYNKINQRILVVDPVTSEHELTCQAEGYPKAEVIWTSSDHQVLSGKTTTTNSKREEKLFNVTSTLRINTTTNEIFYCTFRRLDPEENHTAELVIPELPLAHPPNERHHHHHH

binding result (human PDL1-His) | Kd (human PDL1-Fc [1]) [nM] | EC50 (human PDL1-Fc [2]) [µg/mL] | Binder
no binding | – | – | NbPDL1-14-Fc (antibody, V domains shown) VH: QVQLQESGGGLVQPGGSLRLSCAASGIISDINMVAWYRQAPGKQRELVAKIFRGGSTYYTDFVKGRFTISRENAKNTVYLQMNSLKPDDTAVYYCNARIQIRADRDYSDYWGQGTQVTVSS
no binding | – | – | PDL1-14 (antibody, V domains shown) VH: QVQLQESGGGLVQPGGSLRLSCAASGIISDINMVAWYRQAPGKQRELVAKIFRGGSTYYTDFVKGRFTISRENAKNTVYLQMNSLKPDDTAVYYCNARIQIRADRDYSDYWGQGTQVTVSS
– | 22 | – | PDL1-1v6 (antibody, V domains shown) VH: EVQLLESGGGLVQPGGSLRLSCAASGFTVSNSAVSWARQAPGKGLEWVSLIDSNRNTVYAQSVRGRFTISRDNSKNTVYLQMNSLKAEDTAVYYCAKGIWGSTLWGQGTTVTVSS
– | 12.2 | 0.0478 | PDL1-1v5 (antibody, V domains shown) VH: EVQLLESGGGLVQPGGSLRLSCAASGFTVSNSAVSWARQAPGKGLEWVSLIDSNRNTVYAQSVRGRFTISRDNVKNTVYLQMNSLRAEDTAVYYCAKGWGSTLWGQGTTVTVSS
